According to PMC5893306 (Molecular pharmaceutics, 2018):

Assay: Rat pharmacokinetics, IV and SC
Format: in vivo, Sprague Dawley rats
Conditions: for Vd / half-life / Tmax / bioavailability / clearance: Sprague-Dawley, rat, plasma
[1] = rats, IV, compared to PIE12-trimer

SMILES | Vd (iv) | half-life (iv) | Tmax (sc) | bioavailability (sc) | half-life (sc) | increase in half-life upon IV or SC dosing (rats, compared to PIE12-trimer) | reduction of clearance [1] | clearance (iv) | increase of IV half-life [1] | extension of apparent half-life upon SC dosing (rats, SC, based on terminal-phase elimination, compared to PIE12-trimer)
CCCCCCCCCCCCCCCCSC1CC(=O)N(CCC(=O)NCCOCCOCCOCCOCCOCCOCCOCCOCCOCCOCCOCCOCCOCCOCCOCCOCCOCCOCCOCCOCCOCCOCCOCCOCCC(=O)NC(COCCC(=O)NCCOCCOCCOCCOCCC(=O)NCCCC[C@@H](NC(=O)CNC(=O)[C@@H](CC(C)C)NC(=O)[C@@H](CCC(=O)O)NC(=O)[C@H]2CSSC[C@@H](NC(=O)[C@H]3CCCN3C(=O)[C@@H](Cc3c[nH]cn3)NC(C)=O)C(=O)N[C@H](CC(=O)O)C(=O)N[C@H](Cc3ccc(O)cc3)C(=O)N3CCC[C@@H]3C(=O)N[C@H](CCC(=O)O)C(=O)N[C@H](Cc3c[nH]c4ccccc34)C(=O)N[C@H](CCC(N)=O)C(=O)N[C@H](Cc3c[nH]c4ccccc34)C(=O)N[C@H](CC(C)C)C(=O)N2)C(N)=O)(COCCC(=O)NCCOCCOCCOCCOCCC(=O)NCCCC[C@@H](NC(=O)CNC(=O)[C@@H](CC(C)C)NC(=O)[C@@H](CCC(=O)O)NC(=O)[C@H]2CSSC[C@@H](NC(=O)[C@H]3CCCN3C(=O)[C@@H](Cc3c[nH]cn3)NC(C)=O)C(=O)N[C@H](CC(=O)O)C(=O)N[C@H](Cc3ccc(O)cc3)C(=O)N3CCC[C@@H]3C(=O)N[C@H](CCC(=O)O)C(=O)N[C@H](Cc3c[nH]c4ccccc34)C(=O)N[C@H](CCC(N)=O)C(=O)N[C@H](Cc3c[nH]c4ccccc34)C(=O)N[C@H](CC(C)C)C(=O)N2)C(N)=O)COCCC(=O)NCCOCCOCCOCCOCCC(=O)NCCCC[C@@H](NC(=O)CNC(=O)[C@@H](CC(C)C)NC(=O)[C@@H](CCC(=O)O)NC(=O)[C@H]2CSSC[C@@H](NC(=O)[C@H]3CCCN3C(=O)[C@@H](Cc3c[nH]cn3)NC(C)=O)C(=O)N[C@H](CC(=O)O)C(=O)N[C@H](Cc3ccc(O)cc3)C(=O)N3CCC[C@@H]3C(=O)N[C@H](CCC(=O)O)C(=O)N[C@H](Cc3c[nH]c4ccccc34)C(=O)N[C@H](CCC(N)=O)C(=O)N[C@H](Cc3c[nH]c4ccccc34)C(=O)N[C@H](CC(C)C)C(=O)N2)C(N)=O)C1=O (stereo partly drawn) [C16-PIE12-trimer] | 0.137 L/kg | 0.9 h | 1 h | 38% | 1.2 h | < 2 fold | 5-8 fold | – | – | –
CCCCCCCCCCCCCCCCCCSC1CC(=O)N(CCC(=O)NCCOCCOCCOCCOCCOCCOCCOCCOCCOCCOCCOCCOCCOCCOCCOCCOCCOCCOCCOCCOCCOCCOCCOCCOCCC(=O)NC(COCCC(=O)NCCOCCOCCOCCOCCC(=O)NCCCC[C@@H](NC(=O)CNC(=O)[C@@H](CC(C)C)NC(=O)[C@@H](CCC(=O)O)NC(=O)[C@H]2CSSC[C@@H](NC(=O)[C@H]3CCCN3C(=O)[C@@H](Cc3c[nH]cn3)NC(C)=O)C(=O)N[C@H](CC(=O)O)C(=O)N[C@H](Cc3ccc(O)cc3)C(=O)N3CCC[C@@H]3C(=O)N[C@H](CCC(=O)O)C(=O)N[C@H](Cc3c[nH]c4ccccc34)C(=O)N[C@H](CCC(N)=O)C(=O)N[C@H](Cc3c[nH]c4ccccc34)C(=O)N[C@H](CC(C)C)C(=O)N2)C(N)=O)(COCCC(=O)NCCOCCOCCOCCOCCC(=O)NCCCC[C@@H](NC(=O)CNC(=O)[C@@H](CC(C)C)NC(=O)[C@@H](CCC(=O)O)NC(=O)[C@H]2CSSC[C@@H](NC(=O)[C@H]3CCCN3C(=O)[C@@H](Cc3c[nH]cn3)NC(C)=O)C(=O)N[C@H](CC(=O)O)C(=O)N[C@H](Cc3ccc(O)cc3)C(=O)N3CCC[C@@H]3C(=O)N[C@H](CCC(=O)O)C(=O)N[C@H](Cc3c[nH]c4ccccc34)C(=O)N[C@H](CCC(N)=O)C(=O)N[C@H](Cc3c[nH]c4ccccc34)C(=O)N[C@H](CC(C)C)C(=O)N2)C(N)=O)COCCC(=O)NCCOCCOCCOCCOCCC(=O)NCCCC[C@@H](NC(=O)CNC(=O)[C@@H](CC(C)C)NC(=O)[C@@H](CCC(=O)O)NC(=O)[C@H]2CSSC[C@@H](NC(=O)[C@H]3CCCN3C(=O)[C@@H](Cc3c[nH]cn3)NC(C)=O)C(=O)N[C@H](CC(=O)O)C(=O)N[C@H](Cc3ccc(O)cc3)C(=O)N3CCC[C@@H]3C(=O)N[C@H](CCC(=O)O)C(=O)N[C@H](Cc3c[nH]c4ccccc34)C(=O)N[C@H](CCC(N)=O)C(=O)N[C@H](Cc3c[nH]c4ccccc34)C(=O)N[C@H](CC(C)C)C(=O)N2)C(N)=O)C1=O (stereo partly drawn) [C18-PIE12-trimer] | 0.227 L/kg | 1.1 h | 2 h | 94% | 1.4 h | < 2 fold | 5-8 fold | 2.5 mL/min/kg | – | –
CC(=O)N[C@H](Cc1c[nH]cn1)C(=O)N1CCC[C@@H]1C(=O)N[C@@H]1CSSC[C@H](C(=O)N[C@H](CCC(=O)O)C(=O)N[C@H](CC(C)C)C(=O)NCC(=O)N[C@H](CCCCNC(=O)CCOCCOCCOCCOCCNC(=O)CCOCC(C)(COCCC(=O)NCCOCCOCCOCCOCCC(=O)NCCCC[C@@H](NC(=O)CNC(=O)[C@@H](CC(C)C)NC(=O)[C@@H](CCC(=O)O)NC(=O)[C@H]2CSSC[C@@H](NC(=O)[C@H]3CCCN3C(=O)[C@@H](Cc3c[nH]cn3)NC(C)=O)C(=O)N[C@H](CC(=O)O)C(=O)N[C@H](Cc3ccc(O)cc3)C(=O)N3CCC[C@@H]3C(=O)N[C@H](CCC(=O)O)C(=O)N[C@H](Cc3c[nH]c4ccccc34)C(=O)N[C@H](CCC(N)=O)C(=O)N[C@H](Cc3c[nH]c4ccccc34)C(=O)N[C@H](CC(C)C)C(=O)N2)C(N)=O)COCCC(=O)NCCOCCOCCOCCOCCC(=O)NCCCC[C@@H](NC(=O)CNC(=O)[C@@H](CC(C)C)NC(=O)[C@@H](CCC(=O)O)NC(=O)[C@H]2CSSC[C@@H](NC(=O)[C@H]3CCCN3C(=O)[C@@H](Cc3c[nH]cn3)NC(C)=O)C(=O)N[C@H](CC(=O)O)C(=O)N[C@H](Cc3ccc(O)cc3)C(=O)N3CCC[C@@H]3C(=O)N[C@H](CCC(=O)O)C(=O)N[C@H](Cc3c[nH]c4ccccc34)C(=O)N[C@H](CCC(N)=O)C(=O)N[C@H](Cc3c[nH]c4ccccc34)C(=O)N[C@H](CC(C)C)C(=O)N2)C(N)=O)C(N)=O)NC(=O)[C@@H](CC(C)C)NC(=O)[C@@H](Cc2c[nH]c3ccccc23)NC(=O)[C@@H](CCC(N)=O)NC(=O)[C@@H](Cc2c[nH]c3ccccc23)NC(=O)[C@@H](CCC(=O)O)NC(=O)[C@H]2CCCN2C(=O)[C@@H](Cc2ccc(O)cc2)NC(=O)[C@@H](CC(=O)O)NC1=O [PIE12-trimer] | 0.704 L/kg | 0.6 h | 0.5 h | – | 0.8 h | – | – | 13.9 mL/min/kg | – | –
CCCCCCCCCCCCCCCC(=O)N[C@H](CSC1CC(=O)N(CCC(=O)NCCOCCOCCOCCOCCOCCOCCOCCOCCOCCOCCOCCOCCOCCOCCOCCOCCOCCOCCOCCOCCOCCOCCOCCOCCC(=O)NC(COCCC(=O)NCCOCCOCCOCCOCCC(=O)NCCCC[C@@H](NC(=O)CNC(=O)[C@@H](CC(C)C)NC(=O)[C@@H](CCC(=O)O)NC(=O)[C@H]2CSSC[C@@H](NC(=O)[C@H]3CCCN3C(=O)[C@@H](Cc3c[nH]cn3)NC(C)=O)C(=O)N[C@H](CC(=O)O)C(=O)N[C@H](Cc3ccc(O)cc3)C(=O)N3CCC[C@@H]3C(=O)N[C@H](CCC(=O)O)C(=O)N[C@H](Cc3c[nH]c4ccccc34)C(=O)N[C@H](CCC(N)=O)C(=O)N[C@H](Cc3c[nH]c4ccccc34)C(=O)N[C@H](CC(C)C)C(=O)N2)C(N)=O)(COCCC(=O)NCCOCCOCCOCCOCCC(=O)NCCCC[C@@H](NC(=O)CNC(=O)[C@@H](CC(C)C)NC(=O)[C@@H](CCC(=O)O)NC(=O)[C@H]2CSSC[C@@H](NC(=O)[C@H]3CCCN3C(=O)[C@@H](Cc3c[nH]cn3)NC(C)=O)C(=O)N[C@H](CC(=O)O)C(=O)N[C@H](Cc3ccc(O)cc3)C(=O)N3CCC[C@@H]3C(=O)N[C@H](CCC(=O)O)C(=O)N[C@H](Cc3c[nH]c4ccccc34)C(=O)N[C@H](CCC(N)=O)C(=O)N[C@H](Cc3c[nH]c4ccccc34)C(=O)N[C@H](CC(C)C)C(=O)N2)C(N)=O)COCCC(=O)NCCOCCOCCOCCOCCC(=O)NCCCC[C@@H](NC(=O)CNC(=O)[C@@H](CC(C)C)NC(=O)[C@@H](CCC(=O)O)NC(=O)[C@H]2CSSC[C@@H](NC(=O)[C@H]3CCCN3C(=O)[C@@H](Cc3c[nH]cn3)NC(C)=O)C(=O)N[C@H](CC(=O)O)C(=O)N[C@H](Cc3ccc(O)cc3)C(=O)N3CCC[C@@H]3C(=O)N[C@H](CCC(=O)O)C(=O)N[C@H](Cc3c[nH]c4ccccc34)C(=O)N[C@H](CCC(N)=O)C(=O)N[C@H](Cc3c[nH]c4ccccc34)C(=O)N[C@H](CC(C)C)C(=O)N2)C(N)=O)C1=O)C(=O)O (stereo partly drawn) [Palm-PIE12-trimer] | 0.144 L/kg | 1.8 h | 1 h | – | 2.2 h | – | 14-18 fold | – | 3 fold | ~ 3 fold
